Assays:
[1] = system: MelanoDerm 3-D reconstructed human skin; experiment: Pigmentation of 3-D reconstructed skin (MelanoDerm), L value and microscopy; assay type: cell-based; details: for ΔL (pigmentation, L value): day 9, vs vehicle
Protocol: Light, Medium, and Dark human epidermal equivalents (MelanoDerm®) were purchased from MatTek Corp. (Ashland, Mass.). MelanoDerms were grown at the air/liquid interface of the maintenance medium MEL-LLMM (MatTek Corp.), and the culture medium was renewed every 2 days. Where noted, MelanoDerms were treated for 9 days with 50 ng/ml NRG-1 (rhNRG-1-β1, R&D Systems, Minneapolis, Minn.) prepared in phosphate-buffered saline (PBS) with 0.1% bovine serum albumin (BSA) and MelanoDerm maintenance medium. The same concentrations of PBS and BSA were used for mock-treated controls.
For the studies where the MelanoDerms were treated with NRG-1 and/or various pan-ERBB inhibitors, Dark MelanoDerms were first incubated with a pan-ERBB inhibitor (0.5 μM Compound 39, EMD Chemicals, Gibbistown, N.J. or 2 μM CI-1033, Selleck Chemicals LLC, US) for 30 minutes or with vehicle (DMSO) only before treatment with 50 ng/ml NRG-1; identical amounts of DMSO (0.02%) were added to all samples. Treatment was renewed every 2 days in fresh medium and was continued for 9 days.
Three dimensional (3-D) reconstructed human skin models (termed MelanoDerms) were used to test the effects of NRG-1 on skin pigmentation. Three types of MelanoDerm, ‘light’ ([…]), ‘medium’ ([…]) and ‘dark’ ([…]), were used to compare the effects of NRG-1 on those three types of skin. In preliminary studies to optimize the concentration of NRG-1 (from 10 to 200 ng/ml were tested, FIG. 10), 50 ng/ml was chosen which was consistent with concentrations of NRG-1 used for other cell types by other groups. NRG-1 was added to the MelanoDerm media at 50 ng/ml and the medium was replenished every 2 days. On day 9, the MelanoDerms treated with NRG-1 were compared to controls treated only with vehicle. Pigmentation of the skin was assessed using the L value, higher L values indicating lighter colors. […] It should be noted that relatively small changes in ΔL can represent relatively large changes in visible skin color. For example, the mean L value of White/Caucasian skin is 67, that of Asians, Pacific-Islanders is 65, that of Hispanic/Latinos is 64, and that of American Indian/Alaska Native is 62. […] In the vehicle-treated control MelanoDerms, melanin pigment was more evenly distributed throughout the entire epidermis and no visible melanin accumulation was observed around melanocytes (FIG. 3B). […] Therefore, NRG-1 leads to visible increases in pigmentation in the MelanoDerms which was greater as the skin had more constitutive pigmentation.

ERBB2 = ERBB2 protein level by western blotting in melanocytes; assay type: cell-based, human
Protocol: FIGS. 7A and 7B are digital images illustrating expression of ERBBs after NRG-1 treatment. FIG. 7A) HEM-LP and HEM-DP melanocytes were treated with or without NRG-1 (50 ng/ml) for 5 days, and levels of ERBB2, ERBB3 or ERBB4 were detected by western blotting. Results shown are representative of three studies. FIG. 7B) Expression of ERBB2 was examined in HEM-LP and in HEM-DP melanocytes after 1 or 9 days or treatment with NRG-1 compared to vehicle-treated controls; the results are representative of two independent studies.
FIGS. 8A and 8B are digital images illustrating the mechanism of ERBB2 abrogation after NRG-1 treatment. FIG. 8A) ERBB2 mRNA levels in HEM-LP and in HEM-DP melanocytes were detected by RT-PCR after treatment with or without NRG-1 (50 ng/ml) for 1 day. FIG. 8B) MG132 (120 nM) was added to the melanocyte culture medium to inhibit proteasomal degradation during treatment of HEM-LP and HEM-DP melanocytes with or without NRG-1 (50 ng/ml). Proteins were extracted for each sample, and ERBB2 levels were detected by western blotting. Results are representative of three studies.
Fibroblast cultures in 100-mm dishes were solubilized in appropriate volumes of M-PER mammalian protein extraction reagent (Pierce Biotechnology, Rockford, Ill.) containing a Protease Inhibitor mixture (Roche, Mannheim, Germany) and phosphatase inhibitors. The protein concentration of each extract was measured using a BCA protein assay kit (Pierce, Rockford, Ill.). Cell extracts (20 μg) were separated on 8-16% gradient SDS polyacrylamide gels (Invitrogen, Carlsbad, Calif.), after which proteins were transferred to PVDF membranes (Invitrogen, Carlsbad, Calif.). Membranes were blocked for 1 hour in PBS or Tris buffered saline (TBS) containing 0.1% Tween 20 and 5% (w/v) nonfat dry milk powder and were incubated overnight at 4° C. with the primary antibody in PBS containing 0.1% Tween 20 and 2.5% (w/v) nonfat dry milk powder or in 0.1% Tween-TBS with 5% BSA, depending on the antibody. The following primary antibodies were used: anti-human DKK-1 (0.2 μg/ml), anti-human DKK-3 (0.1 μg/ml), anti-human bFGF (0.1 μg/ml), anti-human SCF (0.1 μg/ml), anti-human mouse monoclonal ERBB3 (1 μg/ml) and anti-human mouse monoclonal ERBB4 (2 μg/ml) antibodies from R&D Systems, neuregulin-1α/β1/2 (C-20) (1:500) and GAPDH (FL-335) (1:10,000) antibodies from Santa Cruz Biotechnology, ERBB2 rabbit monoclonal (1:1000) and phospho-Akt (Ser473) (1:1000) antibodies from Cell Signaling Technology. Membranes were then incubated with an HRP-linked anti-rabbit antibody (GE Healthcare) at 1:10,000 dilution or with an anti-goat antibody (DAKO) at 1:2,000 dilution at room temperature for 1 hour. Antigen-antibody complexes were detected using an ECL-plus Western blotting detection system (GE Healthcare). […]

B1: NRG-1: commercially available recombinant human neuregulin-1 (rhNRG-1-β1, R&D Systems), SEQ ID NO: 11 (protein)
chain: TSHLVKCAEKEKTFCVNGGECFMVKDLSNPSRYLCKCPNEFTGDRCQNYVMASFYKHLGIEFMEAEELYQK
Melanocyte growth in MelanoDerm skin model ([1]; MelanoDerm, NRG-1): did not increase melanocyte growth
Melanocyte morphology, bright field microscopy ([1]; MelanoDerms, NRG-1 50 ng/ml, vs vehicle-treated control): more abundant cytoplasm with thicker dendrites
ΔL (pigmentation, L value) ([1]; dark MelanoDerms, NRG-1 50 ng/ml): −3
ΔL (pigmentation, L value) ([1]; light MelanoDerms, NRG-1 50 ng/ml): −1
ΔL (pigmentation, L value) ([1]; medium MelanoDerms (Asian skin), NRG-1 50 ng/ml): −2
Expression of ERBB2 (ERBB2; HEM-LP and HEM-DP, NRG-1 50 ng/ml, 5 days): almost completely undetectable
Level of ERBB2 (ERBB2; both types of melanocytes, NRG-1, 1 day): significantly decrease
ERBB2 expression (ERBB2; both types of melanocytes, NRG-1, day 3, lasted until day 9): completely disappeared

Reference: patent publication US9168297B2, “Regulation of skin pigmentation by neuregulin-1 (NRG-1)” (The United States of America, as Represented by the …, priority 2010, dated 2015)
